Results reported in publication PMC6712418, “Distinct Binding Interactions of α5β1-Integrin and Proteoglycans with Fibronectin” (Biophysical Journal, 2019).

B1: Recombinant human syndecan-4 (natural protein, UniProt P31431 19-145, looked up)
chain: ESIRETEVIDPQDLLEGRYFSGALPDDEDVVGPGQESDDFELSGSGDLDDLEDSMIGPEVVHPLVPLDNHIPERAGSGSQVPTEPKKLEENEVIPKRISPVEESEDVSNKVSMSSTVQGSNIFERTE
modifications: heparan sulfate glycosaminoglycan chains (proteoglycan); cysteines bound to the maleimide of an NHS-PEG-Mal linker on the AFM tip
notes: syndecan-4, human, recombinant; No catalogue number printed; The R&D Systems product is probably the extracellular domain (surmised); also called SDC4; source: bought: R&D Systems
B2: Recombinant human decorin (natural protein, UniProt P07585 31-359, looked up)
chain: DEASGIGPEVPDDRDFEPSLGPVCPFRCQCHLRVVQCSDLGLDKVPKDLPPDTTLLDLQNNKITEIKDGDFKNLKNLHALILVNNKISKVSPGAFTPLVKLERLYLSKNQLKELPEKMPKTLQELRAHENEITKVRKVTFNGLNQMIVIELGTNPLKSSGIENGAFQGMKKLSYIRIADTNITSIPQGLPPSLTELHLDGNKISRVDAASLKGLNNLAKLGLSFNSISAVDNGSLANTPHLRELHLDNNKLTRVPGGLAEHKYIQVVYLHNNNISVVGSSDFCPPGHNTKKASYSGVSLFSNPVQYWEIQPSTFRCVYVRSAIQLGNYK
modifications: a single chondroitin or dermatan sulfate GAG chain attached at the N-terminus (proteoglycan); cysteines bound to the maleimide of an NHS-PEG-Mal linker on the AFM tip
notes: decorin, human, recombinant; 42-kDa core protein; No catalogue number printed; The GAG chain is told of decorin in general; source: bought: R&D Systems

Target: T1, Bovine plasma fibronectin (bovine, UniProt P07589 33-2478)
T1 construct: fibronectin, bovine, from plasma; about 0.5 MDa, two similar subunits attached through disulfide linkages; Adsorbed unmodified on a gold surface from 20 ug/mL in PBS; source: bought: Thermo Fisher Scientific
T1 sequence (P07589 33-2478): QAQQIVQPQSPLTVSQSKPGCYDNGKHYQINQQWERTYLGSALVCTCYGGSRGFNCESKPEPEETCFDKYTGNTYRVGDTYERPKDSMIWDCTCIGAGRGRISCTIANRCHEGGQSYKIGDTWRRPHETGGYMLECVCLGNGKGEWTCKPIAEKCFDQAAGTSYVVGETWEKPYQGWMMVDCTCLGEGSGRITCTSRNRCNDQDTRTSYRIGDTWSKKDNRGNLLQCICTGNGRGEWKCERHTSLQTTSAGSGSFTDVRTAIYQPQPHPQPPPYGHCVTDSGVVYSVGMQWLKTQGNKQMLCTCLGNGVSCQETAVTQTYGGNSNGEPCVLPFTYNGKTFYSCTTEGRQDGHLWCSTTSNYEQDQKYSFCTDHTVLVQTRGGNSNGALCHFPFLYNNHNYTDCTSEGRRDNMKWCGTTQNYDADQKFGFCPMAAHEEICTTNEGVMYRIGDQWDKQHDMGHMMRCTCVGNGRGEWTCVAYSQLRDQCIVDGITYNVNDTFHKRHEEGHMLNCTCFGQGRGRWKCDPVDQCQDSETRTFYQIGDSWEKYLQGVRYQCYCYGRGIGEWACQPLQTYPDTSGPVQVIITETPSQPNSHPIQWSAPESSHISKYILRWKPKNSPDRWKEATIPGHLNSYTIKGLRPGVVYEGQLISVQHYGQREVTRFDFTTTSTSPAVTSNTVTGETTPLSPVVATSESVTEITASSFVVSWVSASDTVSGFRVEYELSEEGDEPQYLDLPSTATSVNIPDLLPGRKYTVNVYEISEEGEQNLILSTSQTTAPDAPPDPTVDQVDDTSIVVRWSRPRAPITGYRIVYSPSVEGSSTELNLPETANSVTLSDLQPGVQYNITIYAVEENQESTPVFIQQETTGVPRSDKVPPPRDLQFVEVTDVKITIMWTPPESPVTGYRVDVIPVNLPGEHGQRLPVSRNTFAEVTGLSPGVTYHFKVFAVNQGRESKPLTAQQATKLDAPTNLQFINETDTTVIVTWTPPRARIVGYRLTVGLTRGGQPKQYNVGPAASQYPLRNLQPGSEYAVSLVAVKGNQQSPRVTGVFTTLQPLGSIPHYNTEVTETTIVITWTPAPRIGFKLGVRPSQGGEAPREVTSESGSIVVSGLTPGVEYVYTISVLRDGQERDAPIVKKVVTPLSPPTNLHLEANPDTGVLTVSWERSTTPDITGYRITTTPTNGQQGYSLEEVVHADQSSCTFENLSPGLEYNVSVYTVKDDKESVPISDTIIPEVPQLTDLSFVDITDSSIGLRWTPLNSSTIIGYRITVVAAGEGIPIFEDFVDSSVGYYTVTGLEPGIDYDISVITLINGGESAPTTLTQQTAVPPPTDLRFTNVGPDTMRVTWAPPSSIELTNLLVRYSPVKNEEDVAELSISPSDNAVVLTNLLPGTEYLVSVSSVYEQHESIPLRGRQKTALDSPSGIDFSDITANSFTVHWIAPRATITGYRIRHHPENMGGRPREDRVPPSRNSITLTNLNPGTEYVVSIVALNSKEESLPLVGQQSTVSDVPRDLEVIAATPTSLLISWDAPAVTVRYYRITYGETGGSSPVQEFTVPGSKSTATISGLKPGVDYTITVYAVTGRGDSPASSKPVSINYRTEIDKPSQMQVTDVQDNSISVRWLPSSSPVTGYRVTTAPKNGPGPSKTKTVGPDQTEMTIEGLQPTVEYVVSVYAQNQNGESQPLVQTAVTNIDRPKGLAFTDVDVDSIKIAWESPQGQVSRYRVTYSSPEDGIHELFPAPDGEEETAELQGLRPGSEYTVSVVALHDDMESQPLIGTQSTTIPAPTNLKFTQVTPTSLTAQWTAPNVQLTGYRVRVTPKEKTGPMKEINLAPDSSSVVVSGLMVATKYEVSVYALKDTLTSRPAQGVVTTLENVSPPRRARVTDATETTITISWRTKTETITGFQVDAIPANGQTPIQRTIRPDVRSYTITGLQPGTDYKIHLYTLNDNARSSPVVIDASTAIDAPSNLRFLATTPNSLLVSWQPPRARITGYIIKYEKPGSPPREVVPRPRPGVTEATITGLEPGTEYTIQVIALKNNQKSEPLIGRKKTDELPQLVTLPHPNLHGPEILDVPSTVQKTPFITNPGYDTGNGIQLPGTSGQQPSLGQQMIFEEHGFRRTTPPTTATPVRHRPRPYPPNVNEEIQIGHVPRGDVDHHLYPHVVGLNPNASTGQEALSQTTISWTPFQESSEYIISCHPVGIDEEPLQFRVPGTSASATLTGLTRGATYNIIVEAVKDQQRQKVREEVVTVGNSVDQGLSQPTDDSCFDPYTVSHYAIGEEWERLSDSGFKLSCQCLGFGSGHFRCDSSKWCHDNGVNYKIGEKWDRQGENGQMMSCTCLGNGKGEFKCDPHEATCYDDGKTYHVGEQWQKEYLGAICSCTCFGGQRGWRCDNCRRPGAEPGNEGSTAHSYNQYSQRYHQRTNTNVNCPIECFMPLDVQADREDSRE
Experiment: dynamic single-molecule force spectroscopy (AFM); fibronectin adsorbed on a gold surface; integrin or proteoglycan tethered by PEG to the AFM tip; PBS; trigger force 500 pN, no dwell; retraction speed varied; Bell-Evans fit of rupture force against ln(loading rate), fm = 10^7 s^-1 assumed
Conditions: both partners purified

Row | Binder | koff [s⁻¹]
1 | B1 | 2.4 ± 0.4
2 | B2 | 40 ± 4
